Measured values taken from patent CN117264055A (SHANGHAI HRAIN BIOTECHNOLOGY CO LTD, dated 2023).
Changes are numbered by the printed parent chain.

What was measured:
重组人CD318-avi-his抗原蛋白 = target: T1, 重组人CD318-avi-his抗原蛋白 (human, UniProt Q9H5V8 30-667); experiment: ELISA, coated recombinant human CD318, periplasmic extract, anti-HA HRP
T1 construct: Coated on ELISA plates at 100 ng per well; also called 重组人CD318蛋白; CDCP1
T1 sequence: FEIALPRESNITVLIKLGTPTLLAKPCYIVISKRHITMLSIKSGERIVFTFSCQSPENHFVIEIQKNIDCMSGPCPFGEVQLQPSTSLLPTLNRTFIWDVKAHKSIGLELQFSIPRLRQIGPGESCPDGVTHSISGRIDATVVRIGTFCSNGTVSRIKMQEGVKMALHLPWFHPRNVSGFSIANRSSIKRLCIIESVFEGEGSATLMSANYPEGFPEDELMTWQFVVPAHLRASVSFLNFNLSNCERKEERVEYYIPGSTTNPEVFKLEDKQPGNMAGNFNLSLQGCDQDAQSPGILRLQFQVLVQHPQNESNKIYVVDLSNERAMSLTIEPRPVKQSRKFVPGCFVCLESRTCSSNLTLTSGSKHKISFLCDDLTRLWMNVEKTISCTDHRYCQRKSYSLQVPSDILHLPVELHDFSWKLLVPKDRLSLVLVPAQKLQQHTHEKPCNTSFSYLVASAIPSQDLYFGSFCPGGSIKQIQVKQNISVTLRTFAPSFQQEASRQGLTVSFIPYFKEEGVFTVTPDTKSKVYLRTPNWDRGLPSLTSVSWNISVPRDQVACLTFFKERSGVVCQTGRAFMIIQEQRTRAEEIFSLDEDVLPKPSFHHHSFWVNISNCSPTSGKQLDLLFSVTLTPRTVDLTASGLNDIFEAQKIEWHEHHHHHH

生物素化的CD318蛋白 = target: T2, 生物素化的CD318蛋白 (human, UniProt Q9H5V8 30-667, biotin on the avi-tag); experiment: flow cytometry, CAR-T cells stained with biotinylated CD318 antigen and PE-streptavidin
T2 construct: Used 1:200 to stain CAR-T cells; also called 生物素-标记的CD318抗原; biotinylated recombinant human CD318-avi-his
T2 sequence: T1 sequence

B1: 4A4 (VHH)
VHH: QVQLVESGGGLVQAGGSLRLSCAASGSIFSGSAMGWYRQAPGKQRELVVVESSGGSTNYADSVKGRFTISRDNAKNTVYLQMNSLKPEDTAVYYCRGFYYGMGYWGKGTQVTVSS
notes: Tested as a periplasmic extract from TG1 (pcomb3X phagemid) and detected with anti-HA HRP; also called CD318 VHH 4A4
重组人CD318-avi-his抗原蛋白
  binding result: binds

B2: 4A8-BBz (other)
chain: EVQLVESGGGLVQPGGSLRLSCAASGFTSDYYAIGWFRQAPGKEREGVSCINNSDGSTYYADSVKGRFTISRDNAKNTVYLQMNSLKPEDTAVYYCAADDDVVAGFSCASYRYLELWGQGTLVTVSSTTTPAPRPPTPAPTIASQPLSLRPEACRPAAGGAVHTRGLDFACDIYIWAPLAGTCGVLLLSLVITLYCRFSVVKRGRKKLLYIFKQPFMRPVQTTQEEDGCSCRFPEEEEGGCELRVKFSRSADAPAYQQGQNQLYNELNLGRREEYDVLDKRRGRDPEMGGKPRRKNPQEGLYNELQKDKMAEAYSEIGMKGERRRGKGHDGLYQGLSTATKDTYDALHMQALPPR
notes: Chimeric antigen receptor: CD8 signal peptide, VHH, CD8a hinge, CD8a transmembrane, 4-1BB, CD3zeta; also called 4A8 CD318 CAR
生物素化的CD318蛋白
  binding result: binds

B3: 4A10-BBz (other)
chain: EVQVVESGGGLVQAGGSLRLSCVASGSNDSMTAMGWYRQAPGKQREMVAVSTSTGTAIYGDSMKGRFTIARDNAKNTVYLQMNSLNFEDTAVYYCRNFIRGRDYWGQGTQVTVSSTTTPAPRPPTPAPTIASQPLSLRPEACRPAAGGAVHTRGLDFACDIYIWAPLAGTCGVLLLSLVITLYCRFSVVKRGRKKLLYIFKQPFMRPVQTTQEEDGCSCRFPEEEEGGCELRVKFSRSADAPAYQQGQNQLYNELNLGRREEYDVLDKRRGRDPEMGGKPRRKNPQEGLYNELQKDKMAEAYSEIGMKGERRRGKGHDGLYQGLSTATKDTYDALHMQALPPR
notes: Chimeric antigen receptor: CD8 signal peptide, VHH, CD8a hinge, CD8a transmembrane, 4-1BB, CD3zeta; also called 4A10 CD318 CAR
生物素化的CD318蛋白
  binding result: binds

B4: 4A8 (VHH)
VHH: EVQLVESGGGLVQPGGSLRLSCAASGFTSDYYAIGWFRQAPGKEREGVSCINNSDGSTYYADSVKGRFTISRDNAKNTVYLQMNSLKPEDTAVYYCAADDDVVAGFSCASYRYLELWGQGTLVTVSS
notes: Tested as a periplasmic extract from TG1 (pcomb3X phagemid) and detected with anti-HA HRP; also called CD318 VHH 4A8
重组人CD318-avi-his抗原蛋白
  binding result: binds

B5: 4A10 (VHH)
VHH: EVQVVESGGGLVQAGGSLRLSCVASGSNDSMTAMGWYRQAPGKQREMVAVSTSTGTAIYGDSMKGRFTIARDNAKNTVYLQMNSLNFEDTAVYYCRNFIRGRDYWGQGTQVTVSS
notes: Tested as a periplasmic extract from TG1 (pcomb3X phagemid) and detected with anti-HA HRP; also called CD318 VHH 4A10
重组人CD318-avi-his抗原蛋白
  binding result: binds

B6: 4B2 (VHH)
VHH: B5 VHH with N28S, T32N, M47T, T54V, M63V, A70S, N97I, I99S
notes: Tested as a periplasmic extract from TG1 (pcomb3X phagemid) and detected with anti-HA HRP; also called CD318 VHH 4B2
重组人CD318-avi-his抗原蛋白
  binding result: binds

B7: 4B7 (VHH)
VHH: EVQLVETGGGLVQPGGSLRLSCAASGFTLDYYAIGWFRQAPGKEREGVSCITSSDDNTYYADSVKGRFTISRDNAKNTVYLQMNSLKPEDTAVYYCATDALSIRRSSCQLGPTAYFGMDYWGKGTLVTVSS
notes: Tested as a periplasmic extract from TG1 (pcomb3X phagemid) and detected with anti-HA HRP; also called CD318 VHH 4B7
重组人CD318-avi-his抗原蛋白
  binding result: binds

B8: 4G2 (VHH)
VHH: QVQLVESGGGLVQAGGSLRLSCAAFGNKYDFNTMGWYRQGPGKQRELVATIAAGGRTNYADSAKGRFTISRDNAKNTVYLQMNSLKPEDTAVYYCSAERVKNHYADYALDDYWGQGIQVTVSS
notes: Tested as a periplasmic extract from TG1 (pcomb3X phagemid) and detected with anti-HA HRP; also called CD318 VHH 4G2
重组人CD318-avi-his抗原蛋白
  binding result: binds
